B1: C-1-tetrahydrofolate synthase, cytoplasmic: PKGIα substrate, phospho site T545 (protein, UniProt P27653 1-935, looked up)
C-1-tetrahydrofolate …: MAPAGILNGKVVSAQIRNRLKTQVTQMQEQVPGFTPGLAILQVGDRDDSNLYINVKLKAAQEIGIKATHIKLPRTSTESEVLKYVISLNEDATVHGFIVQLPLDSENSINTEAVINAIAPEKDVDGLTSINAGKLARGDLKDCFIPCTPKGCLELIKETGVQIAGRHAVVVGRSKIVGAPMHDLLLWNNATVTTCHSKTADLDKEVNKGDILVVATGQPEMVKGEWIKPGAVVIDCGINYVPDDTKPNGRKVVGDVAYDEAKEKASFITPVPGGVGPMTVAMLMQSTVESAQRFLKKFKPGKWTIQYNKLNLKTPVPSDIAISRSCKPKLIGNLAREIGLLTEEVELYGETKAKVLLSALDRLKHQPDGKYVVVTGITPTPLGEGKSTTTIGLVQALGAHLHQNVFACVRQPSQGPTFGIKGGAAGGGYSQVIPMEEFNLHLTGDIHAITAANNLVAAAIDARIFHELTQTDKALFNRLVPSVNGVRKFSDIQIRRLRRLGIEKTDPAALTDDEINRFARLDIDPETITWQRVLDTNDRFLRKITIGQAPTEKGHTRTAQFDISVASEIMAVLALTSSLEDMRARLGKMVVASSKKGEPISCEDLGVSGALTVLMKDAIKPNLMQTLEGTPVFVHAGPFANIAHGNSSIIADRIALKLVGPEGFVVTEAGFGADIGMEKFFNIKCRYSGLQPHVVVLVATVRALKMHGGGPTVTAGLPLPKAYTEEDLDLVEKGFSNLRKQIENARMFGVPVVVAMNAFKTDTDTELDLIGRLSREHGAFDAVKCTHWAEGGQGALALAQAVQRASQAPSSFQLLYDLKLSVEDKIRIIAQKIYGADDIELLPEAQNKAEIYTKQGFGNLPICMAKTHLSLSHNPEQKGVPTGFVLPIRDIRASVGAGFLYPLVGTMSTMPGLPTRPCFYDIDLDPETEQVNGLF
modifications: phosphorylated at T545
B2: Trifunctional enzyme subunit beta, mitochondrial: PKGIα substrate, phospho site S198 (protein, UniProt Q60587 35-475, looked up)
Trifunctional enzyme subunit …: SAPAVQTKSKKTLAKPNLKNIVVVEGVRIPFLLSGTSYKDLMPHDLARAALSGLLYRTNIPKDVVDYIIFGTVIQEVKTSNVAREAALGAGFSDKTPAHTVTMACISSNQAMTTAVGLIASGQCDVVVAGGVELMSDVPIRHSRNMRKMMLDLNKAKTLAQRLSLLTKFRLNFLSPELPAVAEFSTNETMGHSADRLAAAFAVSRMEQDKYALRSHSLAKKAQDEGHLSDIVPFKVPGKDTVSKDNGIRPSSLEQMAKLKPAFIKPYGTVTAANSSFLTDGASAMLIMSEDRALAMGYKPKAYLRDFIYVSQDPKDQLLLGPTYATPKVLEKAGLTMNDIDAFEFHEAFSGQILANFKAMDSDWFAQNYMGRKTKVGAPPLEKFNIWGGSLSLGHPFGATGCRLVMAAANRLRKDGGQYALVAACAAGGQGHAMIVEAYPK
modifications: phosphorylated at S198
B3: 1-phosphatidylinositol 4,5-bisphosphate phosphodiesterase gamma-1: PKGIα substrate, phospho site S1233 (protein, UniProt P10686 2-1290, looked up)
1-phosphatidylinositol …: AGVGTPCANGCGPSAPSEAEVLHLCRSLEVGTVMTLFYSKKSQRPERKTFQVKLETRQITWSRGADKIEGSIDIREIKEIRPGKTSRDFDRYQEDPAFRPDQSHCFVILYGMEFRLKTLSLQATSEDEVNMWIKGLTWLMEDTLQAATPLQIERWLRKQFYSVDRNREDRISAKDLKNMLSQVNYRVPNMRFLRERLTDFEQRSGDITYGQFAQLYRSLMYSAQKTMDLPFLETNTLRTGERPELCQVSLSEFQQFLLEYQGELWAVDRLQVQEFMLSFLRDPLREIEEPYFFLDELVTFLFSKENSVWNSQLDAVCPETMNNPLSHYWISSSHNTYLTGDQFSSESSLEAYARCLRMGCRCIELDCWDGPDGMPVIYHGHTLTTKIKFSDVLHTIKEHAFVASEYPVILSIEDHCSIAQQRNMAQHFRKVLGDTLLTKPVDIAADGLPSPNQLKRKILIKHKKLAEGSAYEEVPTSVMYSENDISNSIKNGILYLEDPVNHEWYPHYFVLTSSKIYYSEETSSDQGNEDEEEPKEASGSTELHSSEKWFHGKLGAGRDGRHIAERLLTEYCIETGAPDGSFLVRESETFVGDYTLSFWRNGKVQHCRIHSRQDAGTPKFFLTDNLVFDSLYDLITHYQQVPLRCNEFEMRLSEPVPQTNAHESKEWYHASLTRAQAEHMLMRVPRDGAFLVRKRNEPNSYAISFRAEGKIKHCRVQQEGQTVMLGNSEFDSLVDLISYYEKHPLYRKMKLRYPINEEALEKIGTAEPDYGALYEGRNPGFYVEANPMPTFKCAVKALFDYKAQREDELTFTKSAIIQNVEKQDGGWWRGDYGGKKQLWFPSNYVEEMINPAILEPEREHLDENSPLGDLLRGVLDVPACQIAIRPEGKNNRLFVFSISMPSVAQWSLDVAADSQEELQDWVKKIREVAQTADARLTEGKMMERRKKIALELSELVVYCRPVPFDEEKIGTERACYRDMSSFPETKAEKYVNKAKGKKFLQYNRLQLSRIYPKGQRLDSSNYDPLPMWICGSQLVALNFQTPDKPMQMNQALFMAGGHCGYVLQPSTMRDEAFDPFDKSSLRGLEPCVICIEVLGARHLPKNGRGIVCPFVEIEVAGAEYDSTKQKTEFVVDNGLNPVWPAKPFHFQISNPEFAFLRFVVYEEDMFSDQNFLAQATFPVKGLKTGYRAVPLKNNYSEDLELASLLIKIDIFPAKENGDLSPFSGTSLRERASDASSQLFHVRAREGSFEARYQQPFEDFRISQEHLADHFDSRERRAPRRTRVNGDNRL
modifications: phosphorylated at S1233
B4: Alpha-2-macroglobulin receptor-associated protein: PKGIα substrate, phospho site S245 (protein, UniProt Q99068 34-360, looked up)
Alpha-2-macroglobulin …: HGGKYSREKNEPEMAAKRESGEEFRMEKLNQLWEKAKRLHLSPVRLAELHSDLKIQERDELNWKKLKVEGLDGDGEKEAKLVHNLNVILARYGLDGRKDTQTVHSNALNEDTQDELGDPRLEKLWHKAKTSGKFSSEELDKLWREFLHYKEKIHEYNVLLDTLSRAEEGYENLLSPSDMTHIKSDTLASKHSELKDRLRSINQGLDRLRKVSHQGYGPATEFEEPRVIDLWDLAQSANFTEKELESFREELKHFEAKIEKHNHYQKQLEISHQKLKHVESIGDPEHISRNKEKYVLLEEKTKELGYKVKKHLQDLSSRVSRARHNEL
modifications: phosphorylated at S245
B5: 6-phosphofructokinase, liver type: PKGIα substrate, phospho site S775 (protein, UniProt P30835 2-780, looked up)
ATP-dependent …: ATVDLEKLRMSGAGKAIGVLTSGGDAQGMNAAVRAVTRMGIYVGAKVFLIYEGYEGLVEGGENIKPANWLSVSNIIQLGGTIIGSARCKAFTTREGRLAAAYNLLQHGITNLCVIGGDGSLTGANIFRNEWGSLLEELVKEGKISESTAQNYAHLSIAGLVGSIDNDFCGTDMTIGTDSALHRIMEVIDAITTTAQSHQRTFVLEVMGRHCGYLALVSALASGADWLFIPEAPPEDGWENFMCERLGETRSRGSRLNIIIIAEGAIDRHGKPISSSYVKDLVVQRLGFDTRVTVLGHVQRGGTPSAFDRVLSSKMGMEAVMALLEATPDTPACVVSLSGNQSVRLPLMECVQVTKDVQKAMDEKRFDEAIQLRGRSFENNWKIYKLLAHQKVSKEKSNFSLAILNVGAPAAGMNAAVRSAVRTGISEGHTVYVVHDGFEGLAKGQVQEVGWHDVAGWLGRGGSMLGTKRTLPKPHLEAIVENLRTYNIHALLVIGGFEAYEGVLQLVEARGRYEELCIVMCVIPATISNNVPGTDFSLGSDTAVNAAMESCDRIKQSASGTKRRVFIVETMGGYCGYLATVTGIAVGADAAYVFEDPFNIHDLKANVEHMTEKMKTDIQRGLVLRNEKCHEHYTTEFLYNLYSSEGRGVFDCRTNVLGHLQQGGAPTPFDRNYGTKLGVKAMLWMSEKLRDVYRKGRVFANAPDSACVIGLRKKVVAFSSVTELKKETDFEHRMPREQWWLNLRLMLKMLAHYRISMADYVSGELEHVTRRTLSIDKGF
modifications: phosphorylated at S775
B6: Fdx1 pS181 (protein, UniProt P24483 65-188, looked up)
Adrenodoxin, mitochondrial: SSSEDKVTVHFKNRDGETLTTKGKVGDSLLDVVIENNLDIDGFGACEGTLACSTCHLIFEDHIYEKLDAITDEENDMLDLAFGLTNRSRLGCQVCLTKAMDNMTVRVPEAVADVRQSVDMSKNS
modifications: phosphorylated at S181
B7: Pfkl pS775 (protein, UniProt P30835 2-780, looked up)
ATP-dependent …: B5 ATP-dependent …
modifications: phosphorylated at S775

system: PKGIα (analogue-sensitive C42S/M438G), cGMP-activated; experiment: Chemical genetic phosphoproteomic screen, cGMP-activated PKGIα C42S/M438G versus unactivated control; format: biochemical, human PKGIα; substrates in rat heart homogenate; settings: PKGIα C42S/M438G + 100 μM cGMP vs basal; 1 h, 30 °C, pH 7.5, rat heart homogenate; label-free LC–MS/MS; n=4; * P<0.05 Dunnett: all values except phospholamban S16
Summary of the method: (§1)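 Substrates in rat left-ventricle homogenate (20 mg ml) are labelled by engineered Met438Gly PKGIα given a bulky N6-alkylated ATPγS analogue, either as disulfide-activated M438G (oxidized, DTT-free) or as cGMP-activated C42S/M438G. Covalent capture and LC–MS/MS identify sites relative to unactivated kinase.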

Molecule	Log2 fold change in phosphorylation, cGMP versus control
B1	3.68*
B2	3.44*
B3	4.50*
B4	2.64*
B5	4.13*

same assay, conditions: control = PKGIα C42S/M438G

Molecule	log2 fold change cGMP vs Control
B6	5.584
B7	4.1288

system: PKGIα (analogue-sensitive M438G), disulfide-activated; experiment: Chemical genetic phosphoproteomic screen, disulfide-activated PKGIα M438G versus unactivated control; format: biochemical, human PKGIα; substrates in rat heart homogenate; settings: control = PKGIα C42S/M438G
Summary of the method: as §1

Molecule	log2 fold change Disulfide vs Control
B6	2.723
B7	1.482

same assay, conditions: disulfide-activated PKGIα M438G vs basal; 1 h, 30 °C, pH 7.5, rat heart homogenate; label-free LC–MS/MS; n=4; * P<0.05 Dunnett: only phospholamban S16

Molecule	Log2 fold change in phosphorylation, Disulfide versus control
B1	1.48
B2	0.04
B3	1.82
B4	0.32
B5	1.48

Source: PMC5095173, “Disulfide-activated protein kinase G Iα regulates cardiac diastolic relaxation and fine-tunes the Frank–Starling response” (Nature Communications, 2016)
